# Test results: patent publication US20220332804A1 (CSL INNOVATION, published 2022)
# Changes are numbered by the printed parent chain.
# T1: human C2 S469A (human, UniProt P06681 21-752)
# T1 sequence: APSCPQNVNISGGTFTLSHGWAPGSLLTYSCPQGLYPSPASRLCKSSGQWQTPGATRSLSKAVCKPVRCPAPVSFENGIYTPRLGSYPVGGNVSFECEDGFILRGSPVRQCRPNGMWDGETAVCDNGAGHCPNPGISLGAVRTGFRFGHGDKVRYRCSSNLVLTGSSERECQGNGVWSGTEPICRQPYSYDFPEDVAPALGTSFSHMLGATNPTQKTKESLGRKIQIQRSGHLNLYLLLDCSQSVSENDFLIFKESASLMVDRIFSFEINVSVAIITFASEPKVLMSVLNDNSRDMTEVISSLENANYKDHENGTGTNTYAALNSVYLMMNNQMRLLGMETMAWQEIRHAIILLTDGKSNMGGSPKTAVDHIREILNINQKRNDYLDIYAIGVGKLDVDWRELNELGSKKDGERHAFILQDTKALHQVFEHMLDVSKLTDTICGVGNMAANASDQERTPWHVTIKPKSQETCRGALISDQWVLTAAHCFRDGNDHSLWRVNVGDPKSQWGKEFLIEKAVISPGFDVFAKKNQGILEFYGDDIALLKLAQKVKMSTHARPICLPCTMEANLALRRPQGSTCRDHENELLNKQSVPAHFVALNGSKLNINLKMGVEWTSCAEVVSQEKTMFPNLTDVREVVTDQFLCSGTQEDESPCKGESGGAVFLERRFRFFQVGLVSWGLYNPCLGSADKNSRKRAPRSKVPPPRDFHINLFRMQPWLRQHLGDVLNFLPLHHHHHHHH
# T2: human C2 R434A (human, UniProt P06681 21-752)
# T2 sequence: T1 sequence with R414A, A449S
# T3: human C2 N424A (human, UniProt P06681 21-752)
# T3 sequence: T1 sequence with N404A, A449S
# T4: human C2 H451A (human, UniProt P06681 21-752)
# T4 sequence: T1 sequence with H431A, A449S
# B1: RF16-214 (antibody, V domains shown)
# VH: EVQLLESGGGLVQPGGSLRLSCAASGFTFSWYQMMWVRQAPGKGLEWVSRIYPSGGGTAYADSVKGRFTISRDNSKNTLYLQMNSLRAEDTAVYYCARDAGYGDNWGQGTLVTVSS
# VL: QSALTQPPSVSVSPGQTASITCSGDKLGEKYASWYQQKAGQSPVMVIYQDRKRPSGIPERFSGSNSGNTATLTISGTQAMDEADYYCQAWDTRAVVFGGGTKLTVLG
# How the values were obtained:
# Assay in all cases: SPR, mAb captured, C2 mutant analyte;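 also: Anti-C2 mAbs captured on goat anti-human IgG Biacore CM5 chips, alanine or serine C2 surface mutants flowed over at 37 °C, double-referenced sensorgrams fitted to a 1:1 binding model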
# [1] = biological target: T1, human C2 S469A
# [2] = biological target: T2, human C2 R434A
# [3] = biological target: T3, human C2 N424A
# [4] = biological target: T4, human C2 H451A
binder,measurement,setting,value
B1,Kd,[1],106 nM
same,Kd,[2],230 nM
same,Kd,[3],16.1 nM
same,Kd,[4],138 nM
